Data on 16 sequences can be found in the nanobody polyreactivity screen of Harvey et al. (2022).

This series is described as follows: yeast display, Sf9 membrane polyspecificity reagent, FACS + sequencing; frameworks hold sequencing errors. A digest of the protocol: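 In a synthetic yeast display library (Saccharomyces cerevisiae BJ5465), nanobody expression was induced with galactose for 36–48 hours. FACS gates were set low and high (top ~1%) using anti-HA fluorescence for expression and streptavidin fluorescence for binding of the Sf9 membrane reagent. Each polyreactivity label is drawn from the gate of origin.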
Consider “QVQLVESGGGLVQAGGSLRLSCSSSGRIFNDYAMGWYRKAPGKERELVATYADSEKGRFTISRYTAKKTVYLQMNSLKPEDTAVYYCAADFPSFPDFRPEYDYWGQGPQVTVSS”, for which the “polyreactivity (PSR sort gate)” value was “low polyreactivity”.
The value for “QVQLVESGGGLVQAGGSLRLSCTASGFTFVYYAMGWYRQAPGKERELVASISRSGGSTYYADSVKGRFTISRDNAKNTVYLQMNSLKPEDTAVYYCNARYGRTALLDYWGQGTQVTVSS” was “high polyreactivity”; that for “QVQLVESGGGLVQAGGSLRLSCTASGFTSRIYAMGWYRQAPVKERELVAAITRGVSTNYSDSVKGRFTISRDNAKNTVYLQMNSLKPEDTAVYYCAARTSGSYPYRTINEYWGQGTQVTVSS” was “high polyreactivity”; that for “QVQLVESGGGLVQAGGSLRLSCVASGRTFATYTLGWYRPAPGKERELVAAITTSGGTYYADSVKGRFTISRDNAKNTVYLQMNSLKPEDTAVYYCANVSYYTSAPWYYYWGQGTQVTVSS” was “high polyreactivity”.
For the sequence “QVQLVESGGGLVQAGGSLRLSCVPTDMGWYRQAPGKERELVATISLSDGNTYYADSVKGRFTISRDNAKNTVYLQMNSLKPEDTAVYYCNALHTWHQTYDYWGQCTQVTVSS”, the “polyreactivity (PSR sort gate)” value is “low polyreactivity”.
Turning to “QVQLVESGGGLVQAGGSLRLSFAASGFTFCIYAMGWYRQAPGKERELVAAINVSEGSTYYADSVKGRFTISRDNAKNTVYLQMNSLKPEDTAVYYCDAYLYDTIYTSYREYDYWGQGTQVTVSS”, the “polyreactivity (PSR sort gate)” value is given as “low polyreactivity”.
In the case of “QVQLVESGGGLVQAGGSLRLSFAASGFTFQWYGMGWSRQAPGKERELVAAINYSGGSTYYADSVKGSFTLSRDNAKNTVYLQMNSLKPEDTAVYYCAAEFYSWPWLRLAPWSMDYWGQGTQVTVSS”, the “polyreactivity (PSR sort gate)” value is listed as “high polyreactivity”.
For “QVQLVESGGGLVQAGGSLRLSFAASGFTFRLYAMGWYRQAPGKERELVAAITSSSGSTYYADSVKGRFTISRDNAKNTVYLQMNSLKPEDTAVYYCNADRGDSSRRYGYWGQGTQVTVSS”, the “polyreactivity (PSR sort gate)” value is reported as “high polyreactivity”.
Regarding “QVQLVESGGGLVQAGGSLRLSFAASGFTFRNYAKGWYRQAPGKERELVATISRSGCSTYYADSVKGRFTISRDNAKNTVYLQMNSLKPEDTAVYYCAAKTILWKYYPYYYVTYDYWGQGTQVTVSS”, the “polyreactivity (PSR sort gate)” value is given as “high polyreactivity”.
For the sequence “QVQLVESGGGLVQAGGSLRLSFAASGGIFWHYTRGWYRQAPGKERELVAAITRRGGSTYYADSVKGRFTISRDNAKNTVYLQMNSLKPEDTAVYYCAADFLPQSYNWYDYWGQGTQVTVSS”, the “polyreactivity (PSR sort gate)” value is “low polyreactivity”.
Turning to “QVQLVESGGGLVQAGGSLRLSFAASGLIFGYNAMGWYRQAPGTERELVAAISRRGTSTYYADSVKGRFTISRDNAKNTVYLQMNSLKPEDTAVYYCATYGVNPPGVEEYNYWGQGTQVTVSS”, the “polyreactivity (PSR sort gate)” value is reported as “high polyreactivity”.
Turning to “QVQLVESGGGLVQAGGSLRLSFAASGLIFPSYTMGWYRQAPGNYGELVAGINSGGSTNYAESVMGRFTISRDIAKNTDYLQMNSQKAEHTAVYYCAKDNNYYWYVSPRDYWGQGTQVTVSS”, the “polyreactivity (PSR sort gate)” value is “low polyreactivity”.
Consider “QVQLVESGGGLVQAGGSLRLSFAASGLTLYKNGMGWYRQAPGKETELVAVISRSGGRTYYADSVQGRFTISRDNAKNTVYLQMNSLKPEDTAVYYCAARQYGPRYTYYYWGQGTQVTVSS”, for which the “polyreactivity (PSR sort gate)” value was “high polyreactivity”.
“QVQLVESGGGLVQAGGSLRLSFAASGNIFTFNAMGLYRQATGKDRELDAAIRSGGSTNYADSVKGRFTISRDNAKNTVDLQMNSLKPEDTAVYYCAAKRYVQGYVYRYGYWGQGTQVTVSS”: the “polyreactivity (PSR sort gate)” value is on record as “high polyreactivity”.
For the sequence “QVQLVESGGGLVQAGGSLRLSFAASGQTFRWNAMGWYRQAPGKERELFAAISRGDRTNYADSVKGRFTISRDNAKNTVYLQMNSLNPEDTAVYYCAKTYQTNYYNGTWGVTSYGYWGQGTQVTVSS”, the “polyreactivity (PSR sort gate)” value was “high polyreactivity”.
Consider “QVQLVESGGGLVQAGGSLRLSFAASGRIIRGYAMGRDRQAPGKERELVAAINGGDSTFADSVKGRFTISRDNAKNTVYLQMNSLKPEDTAVYYCAAAHYFLGPQGASFYYWGQGTQVTVSA”, for which the “polyreactivity (PSR sort gate)” value is recorded as “low polyreactivity”.
